# Laboratory results published in US20210371530A1 (Merck Sharp & Dohme, published 2021).
# Where a chain is given by its changes, count along the chain named. Names may count otherwise.
# B1: Fab 00APE (humanized 08A Fab with S61N correction) (Fab, V domains shown)
# VH: EVQLVQSGAEVKKPGASVKVSCKASGYTFTSYYLYWVRQAPGQGLEWIGGVNPSNGGTNFNEKFKSRVTLTVDTSISTAYMELSRLRSDDTAVYYCTRRDSNYDGGFDYWGQGTTVTVSS
# VL: DIVMTQTPLSLSVTPGQPASISCRASKSVSTSGFSYLHWYLQKPGQPPQLLIFLASNLESGVPDRFSGSGSGTDFTLKISRVEAEDVGVYYCQHSWELPLTFGQGTKLEIKR
# B2: Anti-PD-1/LAG-3 bispecific antibody 18ASS (bispecific antibody, human IgG1, kappa, L234A L235A)
# heavy 1: not shown
# light 1: DIVMTQTPLSLSVTPGQPASISCRASKSVSTSGFSYLHWYLQKPGQPPQLLIFLSKYRSSGVPDRFSGSGSGTDFTLKISRVEAEDVGVYYCSQAYHLPLTFGQGTKLEIKRTVAAPSVFIFPPSDERLKSGTASVVCLLNNFYPREAKVQWKVDNALQSGNSQESVTEQDSKDSTYSLSSRLTLSKADYEKHKVYACEVTHQGLSSPVTKSFNRGEC
# heavy 2: QMQLVQSGPEVKKPGTSVKVSCKASGYTFTDYNVDWVRQARGQRLEWIGDINPNDGGTIYAQKFQERVTITVDKSTSTAYMELSSLRSEDTAVYYCARNYRWFGAMDHWGQGTTVTVSSASTKGPSVFPLAPSSKSTSGGTAALGCLVKDYFPEPVTVSWNSGALTSGVHTFPAVLQSSGLYKLSSVVTVPSSSLGTQTYICNVNHKPSNTKVDKKVEPKSCDKTHTCPPCPAPEAAGGPSVFLFPPKPKDTLMISRTPEVTCVVVSVSHEDPEVKFNWYVDGVEVHNAKTKPREEQYNSTYRVVSVLTVLHQDWLNGKEYKCKVSNKALPAPIEKTISKAKGQPREPQVYVLPPSRDELTKNQVSLLCLVKGFYPSDIAVEWESNGQPENNYLTWPPVLDSDGSFFLYSKLTVDKSRWQQGNVFSCSVMHEALHNHYTQKSLSLSPG
# light 2: DIVMTQTPLSLSVTPGQPASISCKASQSLDYEGDSDMNWYLQKPGQPPQLLIYGASNLESGVPDRFSGSGSGTDFTLKISRVEAEDVGVYYCQQSTEDPRTFGGGTKVEIKRTVAAPSVFIFPPSDEELKSGTATVVCLLNNFYPREAKVQWKVDNALQSGNSQESVTEQDSKDSTYSLSSYLELSKADYEKHKVYACEVTHQGLSSPVTKSFNRGEC
# B3: Anti-PD-1/LAG3 bispecific antibody 33ARK (bispecific antibody, human IgG1, kappa, L234A L235A)
# heavy 1: EVQLVQSGAEVKKPGASVKVSCKASGYTFTSYYLYWVREAPGQGLEWIGGVNPSNGGTNFNEKFKSRVTLTVDTSISTAYMELSRLRSDDTAVYYCTRRDSNYDGGFDYWGQGTTVTVSSASTKGPSVFPLAPSSKSTSGGTAALGCEVTDYFPEPVTVSWNSGALTSGVHTFPAVLESSGLYSLSSVVTVPSSSLGTQTYICNVNHKPSNTKVDKKVEPKSCDKTHTCPPCPAPEAAGGPSVFLFPPKPKDTLMISRTPEVTCVVVSVSHEDPEVKFNWYVDGVEVHNAKTKPREEQYNSTYRVVSVLTVLHQDWLNGKEYKCKVSNKALPAPIEKTISKAKGQPREPQVYVLPPSRDELTKNQVSLLCLVKGFYPSDIAVEWESNGQPENNYLTWPPVLDSDGSFFLYSKLTVDKSRWQQGNVFSCSVMHEALHNHYTQKSLSLSPG
# light 1: DIVMTQTPLSLSVTPGQPASISCRASKSVSTSGFSYLHWYLRKPGQPPQLLIFLASNLESGVPDRFSGSGSGTDFTLKISRVEAEDVGVYYCQHSWELPLTFGQGTKLEIKRTVAAPSVFIFPPSDERLKSGTASVVCLLNNFYPREAKVQWKVDNALQSGNSKESVTEQDSKDSTYSLSSRLTLSKADYEKHKVYACEVTHQGLSSPVTKSFNRGEC
# heavy 2: not shown
# light 2: B2 light 2 with Q42E, T135S, Q164E, Y182T
# Molecular target: human PD-1 on cells (human, UniProt Q15116 25-288)
# Sequence (Q15116 25-288): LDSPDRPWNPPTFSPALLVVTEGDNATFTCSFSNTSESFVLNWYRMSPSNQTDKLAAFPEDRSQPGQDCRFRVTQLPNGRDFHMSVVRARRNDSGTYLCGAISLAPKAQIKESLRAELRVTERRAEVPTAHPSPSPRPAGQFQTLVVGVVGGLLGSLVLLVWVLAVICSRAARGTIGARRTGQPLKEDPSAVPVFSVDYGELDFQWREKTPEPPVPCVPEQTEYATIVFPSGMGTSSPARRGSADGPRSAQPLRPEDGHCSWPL
# Assay: cell-based or functional assay
row,Binder,"AVG EC50 (nM), IL-2 luciferase reporter, Jurkat.hPD-1.IL2luc + THP-1.PD-L1 assay"
1,B1,3.32 nM
2,B2,0.55 nM
3,B3,3.12 nM
